Source: patent US10562935B2, “Stapled peptides and uses thereof” (London Health Sciences Centre Research Inc., priority 2015, dated 2020)
Where a SMILES comes first, the peptide text is derived from it. Bridges are numbered along the chain shown (N, C = ends).

Key:
circular dichroism = settings: pH ns, 0.5 mM
[1] = Function blocking score: total percent inhibition over migration, invasion, inflammation and fibrosis assays divided by number of assays; type: cell-based; settings: total percent inhibition for all assays tested divided by number of assays
Method: As documented in the Examples hereinabove, a variety of cyclized peptides were produced that contained the HA-binding domain 1 (HABD1), HA-binding domain 2 (HABD2), or both HABD1 and HABD2. These peptides were evaluated for helicity, direct HA binding and in a number of cell-based bioassays (effects on migration, invasion, NFkB activation, and TGFβ1 production) that are relevant to inflammation and fibrosis. The relationships amongst helicity, HA-binding, and biofunction were evaluated. Peptides were divided into three groups for this analysis: (1) peptides containing HABD1 (“HABD1”); (2) peptides containing HABD2 (“HABD2”); and peptides containing most or all of HABD1 and all of HABD2 (“HABD1+HABD2”). R^2 values were calculated to quantify the relationships between helicity, HA-binding, and biofunction were evaluated.
The results of this analysis for the HABD1 peptides are shown below in Tables 15 and 16. Table 16 provides a function blocking scores for each of the tested peptides and provides R^2 values showing the relationship between HA binding and helicity (“HA binding vs. CD”), HA binding and function-blocking score (“HA binding vs. FBS”) and helicity vs. function-blocking score (“CD vs. FBS”). The same type of summaries are provided for the HABD2 peptides in Tables 17 and 18 below, and for the HABD1+HABD2 peptides in Tables 19 and 20 below.
Function blocking scores were calculated as the total percent inhibition achieved by the peptide for all assays the peptides were tested in, divided by the number of assays. Assays included migration, invasion, inflammation and fibrosis assays. Not all peptides were tested all of the assays. All peptides were included for deriving R^2 values (Pearson's formula).

[2] = Circular dichroism (CD) spectroscopy of linear and stapled peptides in water or 40% TFE/water (Example 3); type: physicochemical; settings: for [0]208 mean residue ellipticity: λ = 208 nm; for [0]222 mean residue ellipticity: λ = 222 nm
Method: CD spectra were obtained on a Jasco J-810 spectropolarimeter and recorded in the range of 180-260 nm. Peptide solutions were prepared with a 0.1M phosphate buffer solution to a concentration of 0.5 mM. The measurements were performed in quartz cuvettes with a path length of 1 mm and a scanning speed of 10-50 nm/min. Five individual data points were averaged by the instrument in order to obtain the reported CD spectrum. The measurements were carried out at 20° C. A blank solution of 0.1M phosphate buffer solution was run before every measurement in order to baseline correct for any UV-interference observed from the buffer.
CD data for the 14- and 15-mer peptides containing HABD2 (VSKLRSQLVKRKQN, SEQ ID NO: 2) and HABD1 (NLKQKIKHVVKLKDE, SEQ ID NO: 4) and cyclized derivatives thereof in water or 40% TFE/water are provided below in Tables 8 (water) and 9 (40% TFE/water). Tables 8 and 9 provide the mean residue ellipicity ([θ] deg cm^2 dmol^−1) at λ=222 and 208 nm for each peptide and ratios of ellipticities at 222/208. Each of the peptides was acetylated at its amino terminus and amidated at its carboxy terminus.
CD data for linear peptides having the sequences […] (SEQ ID NO: 5) and […] (SEQ ID NO: 6) and cyclized derivatives thereof in water or 40% TFE/water are provided below in Tables 12 (water) and 13 (40% TFE/water). Tables 12 and 13 provide the mean residue ellipicity ([0] deg cm^2 dmol^−1) at λ=222 and 208 nm for each peptide and ratios of ellipticities at 222/208. Each of the peptides was acetylated at its amino terminus and amidated at its carboxy terminus.
Circular Dichroism (CD) spectroscopy is a tool that is used to study the secondary structure characteristics of a compound. Peptides and proteins can fold into organized structures, such as alpha helices and beta sheets, which are the result of complex hydrogen bonding and other interactions between amino acid side chains, as well as adopt a random coil formation, which lacks much of the organization of the other two structures. The CD spectrum of an alpha helix is characterized by two local minima at 208 nm and 222 nm. The ratio of the values of the molar ellipticities at these wavelengths ([θ]222/[θ]208) is a strong indication of the relative helicity of a compound; a compound is more helical when the ratio of these two values approaches 1.0. Synthetic constraints introduced to the peptide backbone can force a peptide chain to increase its helical character. These constraints can be introduced by staples, of varying types, which allow cyclization of the peptide backbone to take place.

[3] = test system: RHAMM-overexpressing (LR21) cells; test: Cell invasion assay (Boyden chamber with MATRIGEL, Chemicon ECM555); type: cell-based; settings: % inhibition relative to positive control; 10 ng/mL of peptide
Method: Compounds 132, 133, 135, 150-153, 156, 265-269, and 275-278 were evaluated for their ability to inhibit cellular invasion. Invasion assays were performed using Chemicon Assay Kits ECM555 (Invasion); Billerica, Mass., USA) according to the manufacturer's protocol. Invasion assays are performed in an identical manner as the migration assays described above in Example 5, except that cells are required to invade through a layer of extracellular matrix (MATRIGEL) coating the filter that separates the upper and lower Boyden chambers. Briefly, sub-confluent cultures of RHAMM-overexpressing (LR21) cells were serum starved overnight before plating 7.5×10^4 cells in the upper chamber of a Boyden chamber either in the presence or absence of 10 ng/mL of peptide. 30% fetal bovine serum in DMEM was used as the chemo-attractant in the lower chamber. The number of cells that had crossed the membrane after 20 hours was assessed using the CYQUANT® GR Dye and lysis buffer solution provided in the kit. Fluorescence was measured with a fluorescent plate reader using 480/520 nm filter set.
Values the mean and SDM of n=3 replicates. *p<0.05, **p<0.01, ***p<0.001 All statistics compared to 30% serum control. In FIG. 49, where bars are labeled with two compound numbers (“152/135”) this means that the data were pooled for the indicated compound, i.e., for the non-acetylated and acetylated versions of the indicated peptide.

[4] = test system: RHAMM-overexpressing (LR21) cells; test: Cell migration assay (Boyden chamber, Chemicon ECM510); type: cell-based; settings: % inhibition relative to positive control
Method: Compounds 132, 133, 150-152, 156-161, 265-269, 275, 277, and 278 were evaluated for their ability to inhibit cell migration. Cell migration assays were performed using Chemicon Assay Kits (ECM510 (Migration); Billerica, Mass., USA) according to the manufacturer's protocol. Briefly, sub-confluent cultures of RHAMM-overexpressing (LR21) cells were serum starved overnight. 7.5×10^4 cells were then plated in the upper chamber of a Boyden chamber. either in the presence or absence of 10 ng/mL of peptide. 30% fetal bovine serum in DMEM was used as the chemo-attractant in the lower chamber. The number of cells that had crossed the membrane after 20 hours was assessed using the CYQUANT GR Dye and lysis buffer solution provided in the kit. Fluorescence was measured with a fluorescent plate reader using a 480/520 nm filter set.
Values are the mean and SDM of n=3 replicates. *p<0.05, **p<0.01. All statistics compare to 30% serum control. In FIGS. 41-43, where bars are labeled with two compound numbers (“133/150” and “135/152”) this means that the data were pooled for the indicated compounds, i.e., for the non-acetylated and acetylated versions of the indicated peptides.

[5] = Direct HA-binding ELISA of biotinylated peptides on HA coated plates (Example 4); set-up: key to HA binding: absorbance (color) read at 450 nm
Method: Each of these peptides was biotinylated at its amino-terminus, and an AEEA spacer was included to separate the peptide sequence from the biotin molecule.
HA coated plates were purchased (ECHELON). Peptides were dissolved in 2 mM PBS to constant molarity, aliquoted and stored at −20° C. until used in assays. 7 kDa biotin-labeled RHAMM (SEQ ID NO: 1) was synthesized and used as a positive control in these assays. Biotin labeled peptides were added to the HA coated wells (n=3 replicates/peptide) at either 0.8 or 0.08 μM and then incubated with shaking overnight at 4° C. Wells were washed free of excess unbound peptides using 200 μl PBS (4 times). 100 μl of Streptavidin-HRP was then added to each well and the plate was incubated at room temperature for 1 hr. The plate was then washed with 200 μl PBS/well 4 times and TMB Liquid Substrate System for ELISA (Sigma) was added to each well, incubated for 5-10 min at room temperature and color read at 450 nm Plate Reader (BioTek, SYNERGY H4, Hybrid Reader).
Direct HA-binding results for the biotinylated equivalents of compounds 132 and 150-161 are show in FIG. 39, and results for compounds 265-268 and 275-278 are shown in FIG. 40.

[6] = water (methods paragraph says 0.1 M phosphate; tables say water), 20 °C
[7] = as repeated in tables 16, 18, 20

## CC(C)[C@H](N)C(=O)N[C@@H](CO)C(=O)N[C@@H](CCCCN)C(=O)N[C@H]1CCC(=O)NCCCC[C@@H](C(=O)N[C@H](C(=O)N[C@@H](CCCCN)C(=O)N[C@@H](CCCNC(=N)N)C(=O)N[C@@H](CCCCN)C(=O)N[C@@H](CCC(N)=O)C(=O)N[C@@H](CC(N)=O)C(N)=O)C(C)C)NC(=O)[C@H](CCC(N)=O)NC(=O)[C@H](CO)NC(=O)[C@H](CCCNC(=N)N)NC1=O (H-VSKERSQKVKRKQN-NH2; lactam 4-8)
Circular dichroism; Milli-Q water, ns °C
  helicity: -2260 MRE222

## CC(C)C[C@@H]1NC(=O)[C@H](CCC(N)=O)NC(=O)[C@H](CO)NC(=O)[C@@H](NC(=O)[C@H](CC(C)C)NC(=O)[C@H](CCCCN)NC(=O)[C@H](CO)NC(=O)[C@@H](N)C(C)C)CCC(=O)NCCCC[C@@H](C(=O)N[C@@H](CCCCN)C(=O)N[C@@H](CCCNC(=N)N)C(=O)N[C@@H](CCCCN)C(=O)N[C@@H](CCC(N)=O)C(=O)N[C@@H](CC(N)=O)C(N)=O)NC1=O (H-VSKLESQLKKRKQN-NH2; lactam 5-9)
Circular dichroism; Milli-Q water, ns °C
  helicity: -4400 MRE222

## CC(C)C[C@H](NC(=O)[C@H](CCCCN)NC(=O)[C@H](CO)NC(=O)[C@@H](N)C(C)C)C(=O)N[C@@H](CCCNC(=N)N)C(=O)N[C@H]1CCC(=O)NCCCC[C@@H](C(=O)N[C@@H](CCCNC(=N)N)C(=O)N[C@@H](CCCCN)C(=O)N[C@@H](CCC(N)=O)C(=O)N[C@@H](CC(N)=O)C(N)=O)NC(=O)[C@H](C(C)C)NC(=O)[C@H](CC(C)C)NC(=O)[C@H](CCC(N)=O)NC1=O (H-VSKLREQLVKRKQN-NH2; lactam 6-10)
Circular dichroism; Milli-Q water, ns °C
  helicity: -4400 MRE222

## CC(=O)N[C@@H](CC(N)=O)C(=O)N[C@@H](CC(C)C)C(=O)N[C@@H](CCCCN)C(=O)N[C@@H](CCC(N)=O)C(=O)N[C@@H](CCCCN)C(=O)N[C@H]1CCC(=O)NCCCC[C@@H](C(=O)N[C@@H](CCCCN)C(=O)N[C@@H](CC(C)C)C(=O)N[C@@H](CCCCN)C(=O)N[C@@H](CC(=O)O)C(=O)N[C@@H](CCC(=O)O)C(N)=O)NC(=O)[C@H](C(C)C)NC(=O)[C@H](Cc2c[nH]cn2)NC(=O)[C@H](CCCCN)NC1=O (Ac-NLKQKEKHVKKLKDE-NH2; lactam 6-10)
Circular dichroism; [6]
  helicity: -2610 MRE222

## Ac-NLKQKIKHVVKLKDE-NH2 [Compound 156]
[1]
  Function blocking score (FBS): 0
[2]; [θ]222/[θ]208 ratio in water, summary tables 15, 17, 19
  [θ]222/[θ]208 ratio of ellipticities: 0.11
[2]; [7]
  [θ]222/[θ]208 ratio of ellipticities: 0.11
[2]; in 40% TFE/water
  [0]222/[0]208 ratio of ellipticities: 0.74
  [0]208 mean residue ellipticity: -1.03E+04 deg cm^2 dmol^−1
  [0]222 mean residue ellipticity: -8.57E+03 deg cm^2 dmol^−1
[2]; in water
  [0]222/[0]208 ratio of ellipticities: 0.11
  alpha-helical character by CD (in words): nominal alpha helical character in water
  [0]208 mean residue ellipticity: -9.00E+02 deg cm^2 dmol^−1
  [0]222 mean residue ellipticity: -1.01E+02 deg cm^2 dmol^−1
[3]
  Invasion (% inhib.): 0 % inhib.
[4]
  Migration (% inhib.): 0 % inhib.
[5]; [7]
  HA binding: 0.01
[5]; optical density, summary tables 15, 17, 19
  HA direct binding (OD): 0.01 OD

## CC(=O)N[C@H](C(=O)N[C@@H](CO)C(=O)N[C@@H](CCCCN)C(=O)N[C@@H](CC(C)C)C(=O)N[C@H]1CCC(=O)NCCCC[C@@H](C(=O)N[C@@H](CCCCN)C(=O)N[C@@H](CCCNC(=N)N)C(=O)N[C@@H](CCCCN)C(=O)N[C@@H](CCC(N)=O)C(=O)N[C@@H](CC(N)=O)C(N)=O)NC(=O)[C@H](CC(C)C)NC(=O)[C@H](CCC(N)=O)NC(=O)[C@H](CO)NC1=O)C(C)C (Ac-VSKLESQLKKRKQN-NH2; lactam 5-9)
Circular dichroism; [6]
  helicity: -6450 MRE222

## CC(=O)N[C@H](C(=O)N[C@@H](CO)C(=O)N[C@@H](CCCCN)C(=O)N[C@@H](CC(C)C)C(=O)N[C@@H](CCCNC(=N)N)C(=O)N[C@H]1CCCCNC(=O)CC[C@@H](C(=O)N[C@@H](CCCNC(=N)N)C(=O)N[C@@H](CCCCN)C(=O)N[C@@H](CCC(N)=O)C(=O)N[C@@H](CC(N)=O)C(N)=O)NC(=O)[C@H](C(C)C)NC(=O)[C@H](CC(C)C)NC(=O)[C@H](CCC(N)=O)NC1=O)C(C)C (Ac-VSKLRKQLVERKQN-NH2; lactam 6-10)
Circular dichroism; [6]
  helicity: -1980 MRE222

## Ac-VSKLRSQLVKRKQN-NH2
Circular dichroism; [6]
  helicity: -1100 MRE222
